{"source": "the DeepSol protein solubility set"}
{"assay": "soluble on expression in E. coli; label from the status in PepcDB or PDB records"}
{"sequence": "MRVVAAHENLDFDALGSMVLAGRLYPGSVLALVGGVEGVLREVLPLLEDRLDLVPASEIPLDRVREVVLVDNARPERLGPLAALVGRVPFLVYDHHPRTPGDVPAVGGRVAPVGATVSLLVPLLLERGVALDPLEATLAYAGLWEDTGGFSFPSTTPEDLEAAGHLLRQGAEVARVRDWVRPRFGEEAREILSQLLKTAHLVERKGFRLLVARAREKGYVPALAPLAHTLLDLYEADGVLLALRLGGDTLLIARSKARLDVGRWLGALGGGGHARAAFARVRGKGRALARLLETLEAFLDPEPTLGQAMTAPVETLRPTSVREALRQLEERGYGAMPVVEPLGEGVRVLGLARRRDLRKAVRLGFGDHPVEGFLVRAVVLPPSTPLSQVEPRLREAGGRVLVGERAGEGWRLLGIYTRTDLYRSAPRPEPTLAERVLKALPSGVFRVVEALREAFPEGVYLVGGAVRDALLGRSGPDLDLAVGPGVEVARVAQFLVDRFGGSYGLHYAFGTARVRLPFGLVVDLAESREEVYPYPGALPEVRRAPIARDLERRDYSVNAMAVDLGGLAFLDPYGGLRDLEARLLRPLHPLAFVEDPTRVVRGARLAARLGFRFAEEVPRLLAPALLPEVVAGASRSRLREELLLTLEEEAFYRALALLAELGALKALYGLDLPPEAPFLRLRAEEGLGEARLLLLLFHQKDPLERAAWLALPGRLREGLALLLAASRGEEVPKEALGREPLRAAFLALFPEKEAWLKAERRVLMGRDLLKLGLKPGPKVGEILRRVAEARRRGEVRSFEEELALARKLLGDGTLALPE", "soluble on expression in E. coli": "soluble"}
{"sequence": "MRVVVCGGGVIGACAAYFLRRRGIDVTVVERTEVAAAASGKAGGFLARDWCTGTPLDALARRSFALHAQLPEDISGDWGYRPMTAYSGFVASDGDARRDAPSALGWLSDGVVIAQRIGTAETTAIVHPRKFTSAVMNAALAQGAELRPGRVTGITRGTDGMTAGGVEIDGDLVEADAVVIAMGPWSLLAAQWMSLPPVYGQRSPSIVYDTAADAPAEALFLESEEDGSAVSIEVFPRADGSTHITALSDIAPLPLDPAAVTPDRDAIARLQTVSERLSPLFRPERIIAQQACFRPVTQDGLPLIGKVPRSDGLYVATGHNVWGILNAPATGEALAELIAEGATREIDLSPFDPARLTPLDPSLLQARLEHHHHHH", "soluble on expression in E. coli": "not soluble"}
{"sequence": "MRYADRVTFVKTTDEQYNPDLGEYTHTEVISITKPCFVMDMGMEKSVQIFGDYQKDRKVIYLKQPYTKAFDYCEYEGRRYKTQANKLGAIVFYLEGDDSIGG", "soluble on expression in E. coli": "not soluble"}
{"sequence": "MRYCQFEGCSNTTEKGAYCSEHARKSRKKKKPINVYHHDNKSFYRTKEWQDVADFVYEREGGCCQRCGRFVFGRQAHRHHVIPIKKNEMLKLDPNNIRLLCPKCHVIEENEADEKKVFPSYFKK", "soluble on expression in E. coli": "not soluble"}
{"sequence": "MSAAGVRSTRQRAAISTLLETLDDFRSAQELHDELRRRGENIGLTTVYRTLQSMASSGLVDTLHTDTGESVYRRCSEHHHHHLVCRSCGSTIEVGDHEVEAWAAEVATKHGFSDVSHTIEIFGTCSDCRS", "soluble on expression in E. coli": "soluble"}
{"sequence": "MSAATPLIVQQAEAEQLLARIDVLQAMRQLFLDLAAGQALQPAQQLVEFPAGRGDFINYLGVLAQEQVYGVKTSPYIVREQGPLVTAWTLLMSMQTGQPLLLCDAARLTTARTAATTAVAVDALAPAEACRLALIGSGPVAHAHLQYVKGLRDWQGVRVHSPCLDERRLQSLRAIDPRAEAAGSLEEALDEADVILLCTSSARAVIDPRQLKRPALVTSISTNAPRAHEVPAESLAAMDVYCDYRHTTPGSAGEMLIAAEQHGWSPEAIRGDLAELLSAQAPRPEYRRPAFFRSIGLGLEDVALANALYRLRQAG", "soluble on expression in E. coli": "not soluble"}
{"sequence": "MSAAVQKRASTNTVAATTYFKPAPSEIAWGKMRFLITDRPNNSSIQSYIEELEKHGARAVVRVCEPTYDTLALKEAGIDVLDWQFSDGSPPPPEVIKSWFQLCMTSFKEHPDKSIAVHCVAGLGRAPVLVAIALIEAGMKYEDAVEMIRTQRRGALNQKQLKFLETYKANGELRRLRGNVDGKQKSCCIQ", "soluble on expression in E. coli": "not soluble"}
{"sequence": "MSADYPRDLIGYGNNPPHPHWPGDARIALSFVLNYEEGGERCVLHGDKESEAFLSEMVAAQPLQGVRHMSMESLYEYGSRAGVWRLLKLFKRRNVPLTVFAVAMAAQRNPEVIRAMVADGHEICSHGYRWIDYQYMDEAQEREHMLEAIRILTELTGQRPVGWYTGRTGPNTRRLVMEEGGFLYDSDTYDDDLPYWDPASTAEKPHLVIPYTLDTNDMRFTQVQGFNNGEQFFQYLKDAFDVLYEEGATAPKMLSIGLHCRLIGRPARMAALERFIQYAQSHDKVWFARREDIARHWHREHPFQETEA", "soluble on expression in E. coli": "soluble"}
{"sequence": "MSAEAVAAAPIAEEATPVVYYSIESNDRVVLKISEQAIKQSATLSNSITNLGYSAENAESMVPIPIEKVNGKTLKLVVEWCEHHKADPVPEAYPSGNTVLPVWDRKFVDIEHDALTDLVNASNFLEVMTLLTYCCKFIAGLAKGMSPEEMRVFFCIPTDEEDEKAERFGKEKTEASATSADTTA", "soluble on expression in E. coli": "not soluble"}
{"sequence": "MSAEGFLAEHAHRRPSSRRRRAAQFGSPLTPGQDETVSDRTTADLERELAMLAYVRDRLRASEGEGFRIPTTAVDQVLDERNSLERSPWDPT", "soluble on expression in E. coli": "not soluble"}
{"sequence": "MSAETATIPEVSNQETKAEKVIADSLEAKKDESAAVEINGSSTHENGDTNIEKKTEEPVVEAKVSEEPATTSETPAAQVTESQKDEKTDDAPAEPAEVAVEAAKEEPVVEEKKEDAPEPVVTEEKKSEEAPAPEEKKSEEVVAAEEKKEPAAVVEEKKEVPETPVVEDKKEEAPASSEEKKDEPVVNTEEKKDAAEAPAADEESEAAEEKVAETTVAPVATPSGRGRGRGRGRPPGPNATPKAAASEKKRAAKPKAAVNPESIAASRPRRSTSNRIDYANSDTSTVLAEVDDEIPGKLFRGRKPPRGKITKYVSDSDGAPSDEDDVDFGKKKKGAPSTRGRGRPPSSNRPTRAAATKRSAKDASDESNEDEIEYDDKSDEDVSPRKKARGAPARAAADDEDDEGEEMDASEEVEA", "soluble on expression in E. coli": "not soluble"}
{"sequence": "MSAIDCIITAAGLSSRMGQWKMMLPWEQGTILDTSIKNALQFCSRIILVTGYRGNELHERYANQSNITIIHNPDYAQGLLTSVKAAVPAVQTEHCFLTHGDMPTLTIDIFRKIWSLRNDGAILPLHNGIPGHPILVSKPCLMQAIQRPNVTNMRQALLMGDHYSVEIENAEIILDIDTPDDFITAKERYTEILEHHHHHH", "soluble on expression in E. coli": "soluble"}
{"sequence": "MSAMNARQGILSLALKDKPALYSAYMPFVKGGGIFVPTPKRYMLGDEVFLLLTLPDSSERLPVAGKVIWTTPAGAQGNRAAGIGVQFPDGPEGEAVRNKIETLLAGLTTSDKPTHTM", "soluble on expression in E. coli": "soluble"}
{"sequence": "MSAPWETLLDWWFGTSSDAAEVVAQRNGLWFGKNVCQDADAGGRFGDLVNQALDGGLQEWTAEADGWLALILLLDQLPRMIYRDTPRAYAGDARAQRVVREGLEKGFDRQLPPVRRVFAYLVLEHAEDLPSQERAVACFRDLRDQVGGSVRKPFDDFYDYAERHHAVVARFGRFPHRNAILGRPSSEEETAFLREPGSRF", "soluble on expression in E. coli": "not soluble"}
{"sequence": "MSASSSSALPPLVPALYRWKSTGSSGRQVQRRCVGAEAIVGLEEKNRRALYDLYIATSLRNIAPASTLLTLQNLKEMFELALLDARFEHPECACTVSWDDEVPAIITYESPESNESARDWARGCIHVQPTAKSALDLWSEMEEGRAAANDNTPSKSIELFLLSDVSTDSTPIPQDATVEILFHSNHLFWDGIGCRKFVGDLFRLVGSYIGRSDSREMKKIQWGQEIKNLSPPVVDSLKLDINTLGSEFDDKCTEYTSALVANYKSRGMKFQPGLALPRCVIHKLSADESIDIVKAVKTRLGPGFTISHLTQAAIVLALLDHLKPNDLSDDEVFISPTSVDGRRWLREDIASNFYAMCQTAAVVRIENLKSITVSHKDEKELQVRALESACRNIKKSYRQWLENPFLQALGLRVHNFEASYLHAKPIPFEGEANPLFISDGINERFIPHEIKQTATGENVLSVESIDFVVNQSLPYLAIRLDSWRDASTLNIIYNDANYTEAEVQKYLQSIVEFMLAFRL", "soluble on expression in E. coli": "soluble"}
{"sequence": "MSATETKYVPRLYKKYKEEVVPILQKKFNYKSPMQIPRLQKIVVNMGVGEAVQDIRQLERAVEDLRAITGQQPVITRARKSEAGFKLRKGMPIGCKVTLRKERMWDFLDKLISVALPRVKDFKGLSPRSFDGRGNYAFGIAEQIVFPEIDYDKVDRIRGMDIIINTTAETDEEAFWLLSLLGLPIRSM", "soluble on expression in E. coli": "soluble"}
{"sequence": "MSAYIAPSQIAQRQLEYFNGKHVLVAGEVEDMFPLELTAHCESVEVFTSNYSYFRQIRHSDKIKSHFGSEFDVETQADMLLLYWPKAKAEAEYLLAMLMAKLGVNTEIVVVGENRSGVKSIEKMFKEYGPVNKYDSARRCSFYWGNCLNEPKPFNQEEWFKSYTVTLGEQSLTVKSLPGVFSHGEFDLGSRLLLETLPNLSGKVLDFGCGAGVLGAFMAKANPEIAIEMCDINAYAITSSQATLEANGLSGRVFASDIYSDTANDYRFIISNPPFHSGLDTNYNAAETLLGHAPQHLSNHGEMIIVANSFLKYPPIIENAFNNCETLNKTNKFSIYYAKKS", "soluble on expression in E. coli": "not soluble"}
{"sequence": "MSDALVWQVIRNNSAFLRTQRGIGKRFSTEKFNLKKVNSPKYSGLANKHAIDVSAAAKGVVVSTKNEKGRPAKAVTTSTLSKTPVASVRRLAKNAGFNKFNKLAQRRAAAIVRSQVKKAKVQKTDA", "soluble on expression in E. coli": "not soluble"}
{"sequence": "MSDDALSRIAAALERMSPPPMPAPDFSAVDAFAWHTSPDRLEPVPRVARVDLSLLVGVNRARDILLDNTEHFARGLPANNALLWGSRGMGKSSLVKAIHAAVVAKGLPLKIVELSREDLPSVQRLLKHLRGAPFRFILFCDDLSFSHDDQHYKSLKAVLDGGIEGRPENVILYATSNRRHLMPRDMIENERSTAISPSEAVEEKVSLSDRFGLWLGFHPCSQDEYLEMIRGYCAAHGLSVAEEELRAEAIEWQATRGARSGRVAWQFFTDLAARHGVALLEHHHHHH", "soluble on expression in E. coli": "not soluble"}
{"sequence": "MSDDLSAFFAKKKDKKKKSAVKIEEVGQALERRAKRQEEYEQESEDVSEKRVEEEKAVNPNEESEWIEYGESQGRLDGLKIKDMGLESEQDQVNNEEPEDREVHETKTWGQVSSEKKATEEPEQAVTISDKAMAAAYKPPAMRRPGAPYRPRAAAANLDMGSDAAFPSLADASKIEKNKKEESKSPGGWVKAGSGGAWPGSSGPSSSGSSRSYPTTAGSGRDSALAALKMMSAANPAPARNEPAPAPAAAAPASSGAAKAGSYVPPHLRKNQ", "soluble on expression in E. coli": "not soluble"}
{"sequence": "MSDEKKSTDIDLKNLKAGGFIKERGKDLFTVRLRVPGGRMPVARLKKIAEVAEKYGQGMVHLSVRQSVELININFRDFDAVVAELGEGTQKVASCGARVRVPTACGGCEYNPNGLVDTQKSALEVDEKLFGTSTGHHKFKVGFAGCPFDCPKSATNDVGFQGAIWPVLYADECIGCGLCDKSCTEDAIVMGDDGKPRFIPENCLYCGDCLKVCPSEAWRAEKKGYTVRIGGKWGRRPLVGTLFAEFLPEEQVFDFIAAVLDWYKEKAEGQGRIRLGDVIRAEGPDALLGYLRERFPAAVVDATIPPQRIATQIGKEKRVPLEHHHHHH", "soluble on expression in E. coli": "soluble"}
